Results from publication PMC8610377, “Target identification for small-molecule discovery in the FOXO3a tumor-suppressor pathway using a biodiverse peptide library” (Cell Chemical Biology, 2021).

Legend:
[1] = biological target: TAMRA-9J10Min peptide (5-TAMRA-GRRRN(p-Serine)N-acid) (Streptomyces avermitilis); test: fluorescence polarisation; His-14-3-3ε titrated against 10 nM TAMRA-p9J10Min; 10 mM HEPES, 150 mM NaCl, 0.05% Tween; room temperature
[2] = biological target: T1, 9J10/14-3-3ε interaction (Homo sapiens, UniProt P62258); test: FP competition, TAMRA-p9J10Min binding to 14-3-3ε; details: 10nM TAMRA-p9J10Min, 1.5μM His-14-3-3ε, room temperature 20 min; mean of 3 independent experiments +/- SD; read-out: IC50, FP competition (unlabelled peptide)
T1 construct: A synthetic gene construct encoding full length human 14-3-3ε; made in house; host or cells: E. coli BL21(DE3)
T1 sequence (P62258 1-255): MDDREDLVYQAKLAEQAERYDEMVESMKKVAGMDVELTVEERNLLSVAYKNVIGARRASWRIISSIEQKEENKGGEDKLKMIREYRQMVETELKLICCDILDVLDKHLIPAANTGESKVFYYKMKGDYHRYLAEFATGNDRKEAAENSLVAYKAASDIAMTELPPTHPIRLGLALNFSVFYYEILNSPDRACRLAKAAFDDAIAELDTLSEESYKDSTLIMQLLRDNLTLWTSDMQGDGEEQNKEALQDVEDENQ
Protocol: Protein purity was visualized by running SDS-PAGE. […] Compound dilution plates, black 384 well NBS assay plates and tip racks were loaded into the Cytomat as indicated by the scheduling software. […] Test compounds were diluted to 3X final concentration in the dilution plates. 10 μL of diluted compound was added into each well of the assay plate followed by 10μL of […]-3-3ε and 10μL of TAMRA-p9J10Min. Plates were incubated at room temperature for 20 min on the robot's deck or in the Cytomat before the Fluorescence Polarisation was read using the BMG PheraStar plate reader. Test compounds were assayed in triplicate. […] DMSO controls were run alongside all experimental compounds and % inhibition normalised to these controls. All other experimental conditions were as described above.

[3] = test system: GFP-FOXO3a localization in U2OS-GFP-FOXO3a cells; test: FOXO3a relocalisation assay, small-molecule inhibitors, U2OS-GFP-FOXO3a; format: cell-based, human
Protocol: Cells were transfected with plasmid DNA or siRNA or treated with compounds and incubated for the indicated time. Cells were then fixed in a final concentration of 3.7% formaldehyde by addition of fixative directly to the medium for 10min, then stained with 4 μg/mL Hoechst 33,342 (Invitrogen). For testing of peptides in the U2OS-GFP-FOXO3a cell line, cells were transfected with plasmid DNA using FuGENE 6 (Promega, E2691) as described for the screen. For testing of peptides in the HEK293T cell line, cells were co-transfected with a plasmid encoding the test plasmid and a plasmid encoding GFP-FOXO3a using JetPRIME transfection reagent in 96-well plates. At the indicated time point, cells were then fixed and stained as described above. Leptomycin B was purchased from NEB. PI-103 and BEZ235 were purchased from Selleckchem. GSK690693 was purchased from Sigma. […] Average intensities were calculated for each region and the ratio between nuclear and cytoplasmic GFP-FOXO3a was then calculated. […] Results were then expressed as the percentage of cells with nuclear GFP-FOXO3a. […] Images were acquired and then analyzed using a range of nuclear:cytoplasmic ratios to identify a ratio which reproducibly gave the maximal window between DMSO and PI-103 treated cells. […] Median intensities were calculated for each region and the ratio between nuclear and cytoplasmic GFP-FOXO3a was then calculated.

[4] = biological target: 6x His-14-3-3ε (full length human 14-3-3ε) (human) (UniProt P62258); test: ITC; 24 μM 14-3-3ε in the cell titrated with 360 μM TAMRA-9J10; 25°C; 50 mM HEPES, 150 mM NaCl, 0.5 mM DTT; one set of sites model
[5] = test system: transcriptome of HEK293T cells; test: RNA sequencing, differential gene expression; format: cell-based, human; details: 24 h
Protocol: HEK293T cells were transfected in T75 flasks with plasmid DNA encoding Vector, 9J10^WT, 9J10^AMut, GFP-FOXO3a-AAA or GFP, using JetRPIME transfection reagent. Cells were harvested 24 hr post-transfection. Five independent transfections on different days and using cells of different passage number were carried out for each condition.
Total RNA was isolated using the Qiagen RNeasy Mini Kit (#74104) complete with DNase digestion (Qiagen #79254), according to manufacturers instructions. RNA was submitted to Novogene for transcriptome sequencing. RNA degradation and contamination was monitored on 1% agarose gels. RNA purity was checked using the NanoPhotometer spectrophotometer (IMPLEN, CA, USA), and RNA integrity and quantitation were assessed using the RNA Nano 6000 Assay Kit of the Bioanalyzer 2100 system (Agilent Technologies, CA, USA).
HTSeq v0.6.1 was used to count the read numbers mapped to each gene, and then FPKM of each gene was calculated based on the length of the gene and reads count mapped to this gene. FPKM, […] Per Kilobase of exon model per Million mapped reads, considers the effect of sequencing depth and gene length for the reads count at the same time, and is currently the most commonly used method for estimating gene expression levels ([Mortazavi et al., 2008]).
Differential expression analysis between two conditions/groups (with biological replicates) was performed using the DESeq2 R package (2_1.6.3). DESeq2 provide statistical routines for determining differential expression in digital gene expression data using a model based on the negative binomial distribution. The resulting p values were adjusted using the Benjamini and Hochberg's approach for controlling the False Discovery Rate (FDR). Genes with an adjusted p value of <0.05 found by DESeq2 were assigned as differentially expressed.

[6] = biological target: 6x His-14-3-3ε (full length human 14-3-3ε) (human) (UniProt P62258); test: MST; 20 nM NT-647-labelled 14-3-3ε with cognate peptide (16-point dilution; 1 μM in the competitive assay with CU7218); 10 mM Hepes, 150 mM NaCl, 0.01% Tween 20; 25°C
[7] = biological target: 6x His-14-3-3ε (full length human 14-3-3ε) (human) (UniProt P62258); test: fluorescence polarisation; competition: unlabelled 9J10 peptide titrated against 10 nM TAMRA-p9J10Min bound to 1.5 μM His-14-3-3ε; 10 mM HEPES, 150 mM NaCl, 0.05% Tween
[8] = GFP-FOXO3a-AAA vs GFP, adjusted p <0.05

Molecule: 6x His-14-3-3ε (full length human 14-3-3ε) (from UniProt P62258 1-255) (natural protein)
- Kd [1]: 1.47 µM

Molecule: CC(C)C[C@H](N)C(=O)N[C@@H](CC(N)=O)C(=O)N[C@@H](CCCNC(=N)N)C(=O)N[C@H](C(=O)N1CCC[C@H]1C(=O)NCC(=O)N[C@@H](CCCNC(=N)N)C(=O)N[C@@H](CCCNC(=N)N)C(=O)N[C@@H](CCCNC(=N)N)C(=O)N[C@@H](CC(N)=O)C(=O)N[C@@H](COP(=O)(O)O)C(=O)N[C@@H](CC(N)=O)C(=O)O)[C@@H](C)O [unlabeled 9J10-derived phosphopeptide]
- IC50 [2]: 9.8 ± 1.2 µM

Molecule: CCC(=C/[C@H](C)C/C=C/C(C)=C/[C@@H](C)C(=O)[C@@H](C)[C@H](O)[C@@H](C)C/C(C)=C/C(=O)O)/C=C/[C@@H]1OC(=O)C=C[C@@H]1C [leptomycin B]
- relocalization of GFP-FOXO3a to the nucleus ([3]; U2OS-GFP-FOXO3a, 3 hr treatment, Figure 1A: PI-103 1 μM, GSK690693 1 μM, leptomycin 2 nM): can be relocalized to the nucleus

Molecule: Oc1cccc(-c2nc(N3CCOCC3)c3oc4ncccc4c3n2)c1 [PI-103]
- nuclear translocation of GFP-FOXO3a ([3]; 1 μM PI-103, positive control): high degree of nuclear translocation of GFP-FOXO3a

B1: TAMRA-9J10 peptide (5-TAMRA-…(p-Serine)N-acid) (peptide)
peptide: LNRTPGRRRNSN
HELM: PEPTIDE1{[CN(C)c1ccc2c(-c3ccc(C(=O)[*:2])cc3C(=O)[O-])c3ccc(N(C)C)cc3[o+]c2c1].L.N.R.T.P.G.R.R.R.N.[O=C([C@H](COP(=O)(O)O)N[*:1])[*:2]].N}$$$$V2.0
SMILES: CC(C)C[C@H](NC(=O)c1ccc(-c2c3ccc(N(C)C)cc3[o+]c3cc(N(C)C)ccc23)c(C(=O)[O-])c1)C(=O)N[C@@H](CC(N)=O)C(=O)N[C@@H](CCCNC(=N)N)C(=O)N[C@H](C(=O)N1CCC[C@H]1C(=O)NCC(=O)N[C@@H](CCCNC(=N)N)C(=O)N[C@@H](CCCNC(=N)N)C(=O)N[C@@H](CCCNC(=N)N)C(=O)N[C@@H](CC(N)=O)C(=O)N[C@@H](COP(=O)(O)O)C(=O)N[C@@H](CC(N)=O)C(=O)O)[C@@H](C)O
- Kd [4]: 0.7 µM

B2: GFP-FOXO3a-AAA: constitutively active GFP-tagged FOXO3a mutant (protein, UniProt O43524 1-673, looked up, variant T32A S253A S315A)
Forkhead box protein O3: MAEAPASPAPLSPLEVELDPEFEPQSRPRSCAWPLQRPELQASPAKPSGETAADSMIPEEEDDEDDEDGGGRAGSAMAIGGGGGSGTLGSGLLLEDSARVLAPGGQDPGSGPATAAGGLSGGTQALLQPQQPLPPPQPGAAGGSGQPRKCSSRRNAWGNLSYADLITRAIESSPDKRLTLSQIYEWMVRCVPYFKDKGDSNSSAGWKNSIRHNLSLHSRFMRVQNEGTGKSSWWIINPDGGKSGKAPRRRAVAMDNSNKYTKSRGRAAKKKAALQTAPESADDSPSQLSKWPGSPTSRSSDELDAWTDFRSRTNANASTVSGRLSPIMASTELDEVQDDDAPLSPMLYSSSASLSPSVSKPCTVELPRLTDMAGTMNLNDGLTENLMDDLLDNITLPPSQPSPTGGLMQRSSSFPYTTKGSGLGSPTSSFNSTVFGPSSLNSLRQSPMQTIQENKPATFSSMSHYGNQTLQDLLTSDSLSHSDVMMTQSDPLMSQASTAVSAQNSRRNVMLRNDPMMSFAAQPNQGSLVNQNLLHHQHQTQGALGGSRALSNSVSNMGLSESSSLGSAKHQQQSPVSQSMQTLSDSLSGSSLYSTSANLPVMGHEKFPSDLDLDMFNGSLECDMESIIRSELMDADGLDFNFDSLISTQNVVGLNVGNFTGAKQASSQSWVPG
modifications: GFP tag
- number of downregulated genes [5, 8]: 2,569 genes
- number of upregulated genes [5, 8]: 3,026 genes
- CDKN1A (p21^Cip1) expression ([5]; HEK293T): upregulated
- CDKN1B (p27^Kip1) expression ([5]; HEK293T): upregulated

B3: Unlabelled 9J10 peptide (…(p-Serine)N-acid) (peptide)
peptide: LNRTPGRRRNSN
HELM: PEPTIDE1{L.N.R.T.P.G.R.R.R.N.[O=C([C@H](COP(=O)(O)O)N[*:1])[*:2]].N}$$$$V2.0; N-terminus assumed
SMILES: CC(C)C[C@H](N)C(=O)N[C@@H](CC(N)=O)C(=O)N[C@@H](CCCNC(=N)N)C(=O)N[C@H](C(=O)N1CCC[C@H]1C(=O)NCC(=O)N[C@@H](CCCNC(=N)N)C(=O)N[C@@H](CCCNC(=N)N)C(=O)N[C@@H](CCCNC(=N)N)C(=O)N[C@@H](CC(N)=O)C(=O)N[C@@H](COP(=O)(O)O)C(=O)N[C@@H](CC(N)=O)C(=O)O)[C@@H](C)O
- EC80 [6]: 1 µM
- IC50 [7]: 9.8 µM
